These results are taken from PMC7042235, “Structural basis for two-way communication between dynein and microtubules” (Nature Communications, 2020).

In this experiment the target is T1, microtubules (polymerized porcine tubulin) (porcine, UniProt P02550 1-451; P02554 1-445).
T1 construct: alpha-tubulin of porcine tubulin; beta-tubulin of porcine tubulin; Polymer of alpha/beta-tubulin dimers; 14-protofilament MTs were selected for cryo-EM; The species is stated only for the co-sedimentation assay; also called MT; MTs; source: porcine tubulin, polymerized (stabilised with 10 uM paclitaxel for co-sedimentation; GMPCPP-MT for cryo-EM)
Put plainly: co-sedimentation; purified MTBDs (1-32 uM) mixed with 5 uM paclitaxel-stabilised porcine MTs; 100 mM PIPES pH 6.8, 50 mM NaCl, 2 mM MgCl2, 1 mM EGTA; 210,000 x g, 25 °C, 10 min; pellets on SDS-PAGE, densitometry, one-site curve fitting. As to conditions: both partners purified.

B1: MTBD-Low, MTBD(S3097C/V3222C) (domain or fragment)
chain: KCIQDIEPTILEAQRGVKNIKKQQLTEIRSMVNPPSGVKIVMEAVCAILGYQFSNWRDIQQFIRKDDFIHNIVHYDTTLHMKPQIRKYMEEEFLSDPNFTYETINRASKACGPLYQWVNAQINFSKCLENVDPLRQE
modifications: intramolecular disulfide bond between C3097 (CC1) and C3222 (CC2)
The Kd is the free concentration of one partner at which half of the binding sites on the other are occupied at equilibrium, for simple one-to-one binding. Low values mean higher affinity, high ones lower affinity. Take B1: the Kd was over 200 µM.
